Measurements taken from patent EP2289541A1.

Molecular target: low density lipoprotein receptor-related protein (LRP)
Test: cell-based or functional assay
[1] = scale: % of passage versus filter for alteplase alone

**Q.** For “DSPAα1 (Desmoteplase) (from UniProt P98119 37-477) (enzyme)”, which % of abluminal alteplase (alteplase transport across in vitro BBB, zymography assay; alteplase 0.3 µM and DSPAalpha1 0.3 µM) (% of abluminal alteplase alone) is on record?
**A.** 46.6

**Q.** What about the alteplase (% of passage versus filter) (alteplase translocation across in vitro BBB, spectrozyme assay; alteplase 0.3 µM and DSPAalpha1 0.3 µM) [1] of the same substance?
**A.** 67

**Q.** Which % of abluminal alteplase (alteplase transport across in vitro BBB, zymography assay; alteplase 0.3 µM and DSPAalpha 2 0.3 µM) (% of abluminal alteplase alone) does the source give for “DSPAα2 (from UniProt P15638 37-477) (enzyme)” here?
**A.** 25.1

**Q.** What about the alteplase (% of passage versus filter) (alteplase translocation across in vitro BBB, spectrozyme assay; alteplase 0.3 µM and DSPAalpha2 0.3 µM) [1] of the same substance?
**A.** 61.9

**Q.** For “Reteplase (from UniProt P00750 36-562) (enzyme)”, which % of abluminal alteplase (alteplase transport across in vitro BBB, zymography assay; alteplase 0.3 µM and Reteplase 0.3 µM) (% of abluminal alteplase alone) is on record?
**A.** 51.6
